Assay results published in US20090324614A1.

Experiments:
[1] = biological target: rat FcRn/rat β2M expressed on cells (rat) (UniProt P13599); test: FACS blocking of IgG-Fc, IgG, pH 6
[2] = biological target: soluble human FcRn (shFcRn) (human) (UniProt P55899); test: Biacore, IgG immobilized, hFcRn flowed, pH 7.4

Chain of rat FcRn/rat β2M expressed on cells (rat) (P13599 23-366 limits assumed, chain 1 of 2): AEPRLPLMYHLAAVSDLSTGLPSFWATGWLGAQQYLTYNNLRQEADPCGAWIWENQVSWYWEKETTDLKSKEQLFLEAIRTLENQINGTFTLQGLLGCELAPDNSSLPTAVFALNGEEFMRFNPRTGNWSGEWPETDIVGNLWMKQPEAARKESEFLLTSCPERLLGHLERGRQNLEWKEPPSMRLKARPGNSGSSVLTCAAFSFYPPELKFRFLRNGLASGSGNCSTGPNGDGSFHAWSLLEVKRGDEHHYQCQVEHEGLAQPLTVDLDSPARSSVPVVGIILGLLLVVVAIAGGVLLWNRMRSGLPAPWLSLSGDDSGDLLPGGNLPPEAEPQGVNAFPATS
Chain of rat FcRn/rat β2M expressed on cells (rat) (b2m, as listed by the source limits assumed, chain 2 of 2): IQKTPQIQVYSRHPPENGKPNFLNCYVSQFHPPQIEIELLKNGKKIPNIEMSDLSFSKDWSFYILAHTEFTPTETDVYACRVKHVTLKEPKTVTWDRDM

IC50 [1] | Kd [2] | Substance
1.5 nM |  | 1G3 mouse anti-rat FcRn IgG (antibody)
 | 7.06 nM | M161-B04 IgG (DX-2504) (antibody)
